In patent publication US20250340613A1 (JOINT STOCK COMPANY BIOCAD, published 2025):

Experiments:
[1] = molecular target: T1, hAng2_H6F, Angiopoietin-2 (Homo sapiens) aa 19-496 (Homo sapiens, UniProt O15123 19-496); assay: BLI Octet RED 384; antibody on ProA sensor, antigen 30 ug/ml (510.2 nM); response at end of association
T1 construct: also called hAng-H6F; not shown: His and FLAG tags implied by the name 'H6F'
T1 sequence: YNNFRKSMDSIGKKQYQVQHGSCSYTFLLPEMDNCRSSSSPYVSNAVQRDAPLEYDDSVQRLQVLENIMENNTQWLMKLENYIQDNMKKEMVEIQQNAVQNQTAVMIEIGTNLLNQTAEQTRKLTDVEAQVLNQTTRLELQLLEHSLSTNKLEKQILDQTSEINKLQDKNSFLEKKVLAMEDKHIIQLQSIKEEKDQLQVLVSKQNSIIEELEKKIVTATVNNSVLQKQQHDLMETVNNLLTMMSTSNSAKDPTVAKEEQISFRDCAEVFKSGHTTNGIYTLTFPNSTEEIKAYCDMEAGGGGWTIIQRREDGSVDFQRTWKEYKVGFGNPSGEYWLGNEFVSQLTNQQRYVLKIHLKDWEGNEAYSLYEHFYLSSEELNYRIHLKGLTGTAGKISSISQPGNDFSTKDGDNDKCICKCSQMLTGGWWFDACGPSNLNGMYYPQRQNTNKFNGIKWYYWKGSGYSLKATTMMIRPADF
Method: (§1) Experimental study of nonspecific binding of bispecific chimeric antibodies to non-target antigens was performed on Forte Bio Octert RED 384. Protein A (ProA) biosensors (ForteBio) were immersed into a solution containing antibodies at a concentration of 10 μg/ml for 150 seconds to immobilize same. The baseline was recorded in a 1×KB solution for 30 seconds. The antibody-loaded sensors were then immersed into wells containing non-target antigens at a concentration of 30 μg/ml for 150 seconds. Complex dissociation was then recorded for 30 seconds.
(§2) The reference sensors went through all the steps as the sensors used to record analyte sensograms did, with the exception of the association step—at the association step, the sensors were immersed in a kinetic buffer solution without analyte (the reference sensor signals were measured in parallel with the recording of the main sensograms). The reference signal was subtracted from the signal received on sensors interacting with the analyte during the processing of sensograms.
(§3) Sensograms were processed using ForteBio Octet Data Analysisn 9.0 software. To report no non-specific interaction, the recorded signal level was checked at the end of the association step (the response parameter).

[2] = molecular target: T2, hIL4R-His, Interleukin-4 receptor subunit alpha (Homo sapiens) aa 27-227 (Homo sapiens, UniProt P24394 27-227); assay: BLI Octet RED 384; antibody on ProA sensor, antigen 30 ug/ml (1154 nM); response at end of association
T2 construct: range 27-227; not shown: His tag as the name implies
T2 sequence (looked up): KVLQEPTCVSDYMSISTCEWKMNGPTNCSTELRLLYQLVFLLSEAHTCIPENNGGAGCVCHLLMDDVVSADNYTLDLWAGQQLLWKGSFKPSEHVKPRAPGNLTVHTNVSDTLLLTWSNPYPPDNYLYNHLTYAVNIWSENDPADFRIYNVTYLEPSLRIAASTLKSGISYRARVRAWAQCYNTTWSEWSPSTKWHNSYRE
Method: as §1, §2, §3

[3] = molecular target: T3, hCD38-Avi, ADP-ribosyl cyclase/cyclic ADP-ribose hydrolase 1 (Homo sapiens) aa 43-300 (Homo sapiens, UniProt P28907 43-300); assay: BLI Octet RED 384; antibody on ProA sensor, antigen 30 ug/ml (854.7 nM); response at end of association
T3 construct: range 43-300; not shown: Avi tag as the name implies
T3 sequence (looked up): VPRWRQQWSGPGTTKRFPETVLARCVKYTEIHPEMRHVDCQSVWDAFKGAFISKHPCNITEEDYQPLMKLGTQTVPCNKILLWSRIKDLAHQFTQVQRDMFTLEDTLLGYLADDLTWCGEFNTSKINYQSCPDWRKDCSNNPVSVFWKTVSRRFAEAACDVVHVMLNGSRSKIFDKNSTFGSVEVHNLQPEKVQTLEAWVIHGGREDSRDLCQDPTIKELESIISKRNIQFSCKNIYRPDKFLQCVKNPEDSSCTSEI
Method: as §1, §2, §3

[4] = molecular target: T4, Her3-H6F, Receptor tyrosine-protein kinase erbB-3 (Homo sapiens) aa 21-643 (Homo sapiens, UniProt P21860 21-643); assay: BLI Octet RED 384; antibody on ProA sensor, antigen 30 ug/ml (420.8 nM); response at end of association
T4 construct: not shown: His and FLAG tags implied by the name 'H6F'
Method: as §1, §2, §3

[5] = molecular target: T5, hisOX40, Tumor necrosis factor receptor superfamily member 4 (Homo sapiens) aa 26-210 (Homo sapiens, UniProt P43489 26-210); assay: BLI Octet RED 384; antibody on ProA sensor, antigen 30 ug/ml (1310 nM); response at end of association
T5 construct: range 26-210; The tag is put first only because the name begins with His; not shown: His tag as the name implies
T5 sequence (looked up): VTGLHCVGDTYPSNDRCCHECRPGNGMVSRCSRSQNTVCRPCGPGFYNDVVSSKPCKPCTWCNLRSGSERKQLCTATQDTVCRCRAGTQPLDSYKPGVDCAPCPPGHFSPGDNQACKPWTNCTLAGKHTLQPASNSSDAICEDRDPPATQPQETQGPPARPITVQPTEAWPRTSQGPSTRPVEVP
Method: as §1, §2, §3

[6] = molecular target: T6, C-Avi-His-TEVs-HSA_hBCMA, Tumor necrosis factor receptor superfamily member 17 (Homo sapiens) aa 1-54 (Homo sapiens, UniProt Q02223 1-54); assay: BLI Octet RED 384; antibody on ProA sensor, antigen 30 ug/ml (391.2 nM); response at end of association
T6 construct: range 1-54; not shown: Avi, His, TEV site and HSA parts as the name implies
T6 sequence (looked up): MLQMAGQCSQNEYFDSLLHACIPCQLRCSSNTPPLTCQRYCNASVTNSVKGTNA
Method: as §1, §2, §3

[7] = molecular target: T7, extracellular domain of the human PD-1 protein (hPD1ex-H6F) (Homo sapiens, UniProt Q15116 21-170); assay: BLI Octet RED 384; antibody on ProA sensor, antigen 30 ug/ml (1456 nM); response at end of association
T7 construct: Molecular weight 20.6 kDa; made in CHO cells; also called hPDlex-H6F; not shown: C-terminal His and FLAG tags
Method: as §1, §2, §3

[8] = molecular target: T8, Macaca CSF1R_C-His, Macrophage colony-stimulating factor 1 receptor (Macaca mulatta) aa 20-513 (Macaca mulatta); assay: BLI Octet RED 384; antibody on ProA sensor, antigen 30 ug/ml (534.8 nM); response at end of association
T8 construct: range 20-513
Method: as §1, §2, §3

T7 sequence (Q15116 21-170 limits assumed, form in doubt): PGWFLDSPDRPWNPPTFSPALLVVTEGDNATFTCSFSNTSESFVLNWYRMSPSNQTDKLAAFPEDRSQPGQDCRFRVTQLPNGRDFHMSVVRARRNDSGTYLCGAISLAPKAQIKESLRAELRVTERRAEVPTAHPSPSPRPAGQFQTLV
T4 sequence (P21860 21-643 limits assumed): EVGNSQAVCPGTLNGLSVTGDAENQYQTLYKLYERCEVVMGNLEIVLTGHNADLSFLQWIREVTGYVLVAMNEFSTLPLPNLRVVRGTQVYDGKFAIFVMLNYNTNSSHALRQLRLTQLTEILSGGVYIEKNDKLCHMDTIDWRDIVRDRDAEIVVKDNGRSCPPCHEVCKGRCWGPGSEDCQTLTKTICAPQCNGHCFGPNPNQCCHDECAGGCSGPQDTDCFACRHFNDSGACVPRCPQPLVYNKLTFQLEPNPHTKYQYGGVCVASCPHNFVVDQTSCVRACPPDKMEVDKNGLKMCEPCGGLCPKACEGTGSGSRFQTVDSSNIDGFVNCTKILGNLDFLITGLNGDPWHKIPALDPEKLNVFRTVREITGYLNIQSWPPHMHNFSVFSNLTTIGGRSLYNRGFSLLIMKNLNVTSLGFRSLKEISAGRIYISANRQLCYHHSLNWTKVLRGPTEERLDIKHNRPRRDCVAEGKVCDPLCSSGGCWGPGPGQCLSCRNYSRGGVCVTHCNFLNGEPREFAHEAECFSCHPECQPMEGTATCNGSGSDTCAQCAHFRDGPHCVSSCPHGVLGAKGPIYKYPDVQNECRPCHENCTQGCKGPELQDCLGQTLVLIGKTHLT

B1: 02-006, bivalent bispecific chimeric antibody that specifically binds to PD1 and CSF1R (bispecific antibody, human IgG1, kappa, L234A L235A)
heavy 1: QVQLVQSGGGLVQPGGSLRLSCAASGFTFSSYWMYWVRQVPGKGLEWVSAIDTGGGRTYYADSVKGRFAISRVNAKNTMYLQMNSLRAEDTAVYYCARDEGGGTGWGVLKDWPYGLDAWGQGTLVTVSSASTKGPSVFPLAPSSKSTSGGTAALGCLVKDYFPEPVTVSWNSGALTSGVHTFPAVLQSSGLYSLSSVVTVPSSSLGTQTYICNVNHKPSNTKVDKRVEPKSCDKTHTCPPCPAPEAAGGPSVFLFPPKPKDTLYITREPEVTCVVVDVSHEDPEVKFNWYVDGVEVHNAKTKPREEQYNSTYRVVSVLTVLHQDWLNGKEYKCKVSNKALPAPIEKTISKAKGQPREPQVCTLPPSRDELTKNQVSLSCAVKGFYPSDIAVEWESNGQPENNYKTTPPVLDSDGSFFLVSKLTVDKSRWQQGNVFSCSVMHEALHNHYTQKSLSLSPGK
light 1: QPVLTQPLSVSVALGQTARITCGGNNIGSKNVHWYQQKPGQAPVLVIYRDSNRPSGIPERFSGSNSGNTATLTISRAQAGDEADYYCQVWDSSTAVFGTGTKLTVLQRTVAAPSVFIFPPSDEQLKSGTASVVCLLNNFYPREAKVQWKVDNALQSGNSQESVTEQDSKDSTYSLSSTLTLSKADYEKHKVYACEVTHQGLSSPVTKSFNRGEC
heavy 2: not shown
light 2: QAGLTQPPSVSVAPGQTARITCGGNNIGSKSVHWYQQKPGQAPVLVVYGDSDRPSGIPERFSGSNSGNTATLTISRVEAGDEADYYCQVWDISSDHVVFGGGTQLTVLQRQVKPEAWLSSGPSPGPGRLQLVCHVSGFYPKPVWVMWMRGEQEQQGTQLGDILPNANWTWYLRATLDVADGEAAGLSCRVKHSSLEGQDIILYWRGSC
notes: Produced in CHO cells
Signal level (nm) [1]: -0.0239 nm | Signal level (nm) [2]: -0.0075 nm | Signal level (nm) [3]: 0.0158 nm | Signal level (nm) [4]: -0.0115 nm | Signal level (nm) [5]: -0.0094 nm | Signal level (nm) [6]: 0.0009 nm | Signal level (nm) [7]: 0.144 nm | Signal level (nm) [8]: 0.587 nm

B2: 02-008, bivalent bispecific chimeric antibody that specifically binds to CD20 and CSF1R (bispecific antibody, human IgG1, kappa, L234A L235A)
heavy 1: EVQLVESGGGLVQPGGSLRLSCAASGYTFTSYNMHWVRQAPGKGLEWVGAIYPGNGDTSYNQKFKGRFTISVDKSKNTLYLQMNSLRAEDTAVYYCARVVYYSNSYWYFDVWGQGTLVTVSSASTKGPSVFPLAPSSKSTSGGTAALGCLVKDYFPEPVTVSWNSGALTSGVHTFPAVLQSSGLYSLSSVVTVPSSSLGTQTYICNVNHKPSNTKVDKRVEPKSCDKTHTCPPCPAPEAAGGPSVFLFPPKPKDTLYITREPEVTCVVVDVSHEDPEVKFNWYVDGVEVHNAKTKPREEQYNSTYRVVSVLTVLHQDWLNGKEYKCKVSNKALPAPIEKTISKAKGQPREPQVCTLPPSRDELTKNQVSLSCAVKGFYPSDIAVEWESNGQPENNYKTTPPVLDSDGSFFLVSKLTVDKSRWQQGNVFSCSVMHEALHNHYTQKSLSLSPGK
light 1: DIQMTQSPSSLSASVGDRVTITCRASSSVSYMHWYQQKPGKAPKPLIYAPSNLASGVPSRFSGSGSGTDFTLTISSLQPEDFATYYCQQWSFNPPTFGQGTKVEIKRTVAAPSVFIFPPSDEQLKSGTASVVCLLNNFYPREAKVQWKVDNALQSGNSQESVTEQDSKDSTYSLSSTLTLSKADYEKHKVYACEVTHQGLSSPVTKSFNRGEC
heavy 2: not shown
light 2: B1 light 2
notes: Produced in CHO cells
Signal level (nm) [1]: -0.0124 nm | Signal level (nm) [2]: -0.002 nm | Signal level (nm) [3]: 0.0028 nm | Signal level (nm) [4]: -0.0108 nm | Signal level (nm) [5]: -0.012 nm | Signal level (nm) [6]: -0.0023 nm | Signal level (nm) [7]: -0.0033 nm | Signal level (nm) [8]: 0.549 nm

B3: 02-007, bivalent bispecific chimeric antibody that specifically binds to PD1 and CSF1R (bispecific antibody, human IgG1, kappa, L234A L235A)
heavy 1: QVQLVESGGGLVRPGGSLRLSCAASEFTFDDYAMSWVRQAPGKGLEWVSAISWNGGSTNYADSVKGRFTISRDNAKNSLYLQMNSLRAEDTALYYCASTVEVAHRRLYKYLEVWGQGTLVTVSSASTKGPSVFPLAPSSKSTSGGTAALGCLVKDYFPEPVTVSWNSGALTSGVHTFPAVLQSSGLYSLSSVVTVPSSSLGTQTYICNVNHKPSNTKVDKRVEPKSCDKTHTCPPCPAPEAAGGPSVFLFPPKPKDTLYITREPEVTCVVVDVSHEDPEVKFNWYVDGVEVHNAKTKPREEQYNSTYRVVSVLTVLHQDWLNGKEYKCKVSNKALPAPIEKTISKAKGQPREPQVCTLPPSRDELTKNQVSLSCAVKGFYPSDIAVEWESNGQPENNYKTTPPVLDSDGSFFLVSKLTVDKSRWQQGNVFSCSVMHEALHNHYTQKSLSLSPGK
light 1: QAGLTQPPSVSVAPGQTARITCGGNNIGSKSVHWYQQKPGQAPVLVVYGDSDRPSGIPERFSGSNSGNTATLTISRVEAGDEADYYCQVWDISSDHVVFGGGTQLTVLRTVAAPSVFIFPPSDEQLKSGTASVVCLLNNFYPREAKVQWKVDNALQSGNSQESVTEQDSKDSTYSLSSTLTLSKADYEKHKVYACEVTHQGLSSPVTKSFNRGEC
heavy 2: not shown
light 2: QPVLTQPLSVSVALGQTARITCGGNNIGSKNVHWYQQKPGQAPVLVIYRDSNRPSGIPERFSGSNSGNTATLTISRAQAGDEADYYCQVWDSSTAVFGTGTKLTVLQQRQVKPEAWLSSGPSPGPGRLQLVCHVSGFYPKPVWVMWMRGEQEQQGTQLGDILPNANWTWYLRATLDVADGEAAGLSCRVKHSSLEGQDIILYWRGSC
notes: Produced in CHO cells
Signal level (nm) [1]: -0.0079 nm | Signal level (nm) [2]: 0.0051 nm | Signal level (nm) [3]: 0.0088 nm | Signal level (nm) [4]: -0.0063 nm | Signal level (nm) [5]: -0.0056 nm | Signal level (nm) [6]: 0.0061 nm | Signal level (nm) [7]: 0.172 nm | Signal level (nm) [8]: 0.535 nm
